Results from patent US20150246959A1 (US Dept. of Health and Human Services, published 2015).

Columns and labels:
Test in all cases: cell-based or functional assay
[1] = target: MAGE-A3: 243-256 peptide presented by HLA-DP*0401 on 293-CIITA cells (human, UniProt P20036 29-260)
[2] = target: MAGE-A3: 243-255 peptide presented by HLA-DP*0401 on 293-CIITA cells (human, UniProt P20036 29-260)
[3] = target: MAGE-A3: 243-254 peptide presented by HLA-DP*0401 on 293-CIITA cells (human, UniProt P20036 29-260)
[4] = target: MAGE-A3: 243-253 peptide presented by HLA-DP*0401 on 293-CIITA cells (human, UniProt P20036 29-260)
[5] = target: MAGE-A3: 245-258 peptide presented by HLA-DP*0401 on 293-CIITA cells (human, UniProt P20036 29-260)
[6] = target: MAGE-A3: 246-258 peptide presented by HLA-DP*0401 on 293-CIITA cells (human, UniProt P20036 29-260)
[7] = target: MAGE-A3: 247-258 peptide presented by HLA-DP*0401 on 293-CIITA cells (human, UniProt P20036 29-260)
[8] = target: MAGE-A3: 248-258 peptide presented by HLA-DP*0401 on 293-CIITA cells (human, UniProt P20036 29-260)
[9] = target: MAGE-A3: 249-258 peptide presented by HLA-DP*0401 on 293-CIITA cells (human, UniProt P20036 29-260)
[10] = target: MAGE-A6: 248-258 peptide presented by HLA-DP*0401 on 293-CIITA cells (human, UniProt P20036 29-260)
[11] = target: MAGE-A2/A12: 248-258 peptide presented by HLA-DP*0401 on 293-CIITA cells (human, UniProt P20036 29-260)
[12] = target: MAGE-A4/A9: 249-259 peptide presented by HLA-DP*0401 on 293-CIITA cells (human, UniProt P20036 29-260)
[13] = target: MAGE-A8: 251-261 peptide presented by HLA-DP*0401 on 293-CIITA cells (human, UniProt P20036 29-260)
[14] = target: MAGE-A1/B4: 241-251 peptide presented by HLA-DP*0401 on 293-CIITA cells (human, UniProt P20036 29-260)
[15] = target: MAGE-B2: 250-260 peptide presented by HLA-DP*0401 on 293-CIITA cells (human, UniProt P20036 29-260)
[16] = target: MAGE-B10: 250-260 peptide presented by HLA-DP*0401 on 293-CIITA cells (human, UniProt P20036 29-260)
[17] = target: MAGE-B16: 252-262 peptide presented by HLA-DP*0401 on 293-CIITA cells (human, UniProt P20036 29-260)
[18] = target: MAGE-C1: 113-123 peptide presented by HLA-DP*0401 on 293-CIITA cells (human, UniProt P20036 29-260)
[19] = target: MAGE-D4: 300-315 peptide presented by HLA-DP*0401 on 293-CIITA cells (human, UniProt P20036 29-260)
[20] = target: MAGE-D2: 413-428 peptide presented by HLA-DP*0401 on 293-CIITA cells (human, UniProt P20036 29-260)
[21] = target: MAGE-L2: 582-597 peptide presented by HLA-DP*0401 on 293-CIITA cells (human, UniProt P20036 29-260)
[22] = target: MAGE-G1: 220-235 peptide presented by HLA-DP*0401 on 293-CIITA cells (human, UniProt P20036 29-260)
[23] = target: Necdin: 237-247 peptide presented by HLA-DP*0401 on 293-CIITA cells (human, UniProt P20036 29-260)
[24] = target: MAGE-A3: 243-258 peptide presented by HLA-DP*0401 on 293-CIITA cells (human, UniProt P20036 29-260)

IFN-g (pg/ml); CD4+ T cells of PBMC-1; 293-CIITA pulsed with peptide [1]: 1020 pg/mL | IFN-g (pg/ml); CD4+ T cells of PBMC-2; 293-CIITA pulsed with peptide [1]: 1670 pg/mL | IFN-g (pg/ml); CD4+ T cells of PBMC-1; 293-CIITA pulsed with peptide [2]: 76 pg/mL | IFN-g (pg/ml); CD4+ T cells of PBMC-2; 293-CIITA pulsed with peptide [2]: 111 pg/mL | IFN-g (pg/ml); CD4+ T cells of PBMC-1; 293-CIITA pulsed with peptide [3]: 28 pg/mL | IFN-g (pg/ml); CD4+ T cells of PBMC-2; 293-CIITA pulsed with peptide [3]: 30 pg/mL | IFN-g (pg/ml); CD4+ T cells of PBMC-1; 293-CIITA pulsed with peptide [4]: 0 pg/mL | IFN-g (pg/ml); CD4+ T cells of PBMC-2; 293-CIITA pulsed with peptide [4]: 30 pg/mL | IFN-g (pg/ml); CD4+ T cells of PBMC-1; 293-CIITA pulsed with peptide [5]: 9290 pg/mL | IFN-g (pg/ml); CD4+ T cells of PBMC-2; 293-CIITA pulsed with peptide [5]: 8920 pg/mL | IFN-g (pg/ml); CD4+ T cells of PBMC-1; 293-CIITA pulsed with peptide [6]: 7140 pg/mL | IFN-g (pg/ml); CD4+ T cells of PBMC-2; 293-CIITA pulsed with peptide [6]: 9200 pg/mL | IFN-g (pg/ml); CD4+ T cells of PBMC-1; 293-CIITA pulsed with peptide [7]: 6710 pg/mL | IFN-g (pg/ml); CD4+ T cells of PBMC-2; 293-CIITA pulsed with peptide [7]: 6810 pg/mL | IFN-g (pg/ml); CD4+ T cells of PBMC-1; 293-CIITA pulsed with peptide [8]: 6220 pg/mL | IFN-g (pg/ml); CD4+ T cells of PBMC-2; 293-CIITA pulsed with peptide [8]: 7400 pg/mL | IFN-g (pg/ml); CD4+ T cells of PBMC-1; 293-CIITA pulsed with peptide [9]: 669 pg/mL | IFN-g (pg/ml); CD4+ T cells of PBMC-2; 293-CIITA pulsed with peptide [9]: 922 pg/mL | IFN-g (pg/ml); CD4+ T cells of PBMC-1; 293-CIITA pulsed with peptide [10]: 6440 pg/mL | IFN-g (pg/ml); CD4+ T cells of PBMC-2; 293-CIITA pulsed with peptide [10]: 13200 pg/mL | IFN-g (pg/ml); CD4+ T cells of PBMC-1; 293-CIITA pulsed with peptide [11]: 33 pg/mL | IFN-g (pg/ml); CD4+ T cells of PBMC-2; 293-CIITA pulsed with peptide [11]: 37 pg/mL | IFN-g (pg/ml); CD4+ T cells of PBMC-1; 293-CIITA pulsed with peptide [12]: 0 pg/mL | IFN-g (pg/ml); CD4+ T cells of PBMC-2; 293-CIITA pulsed with peptide [12]: 22 pg/mL | IFN-g (pg/ml); CD4+ T cells of PBMC-1; 293-CIITA pulsed with peptide [13]: 43 pg/mL | IFN-g (pg/ml); CD4+ T cells of PBMC-2; 293-CIITA pulsed with peptide [13]: 39 pg/mL | IFN-g (pg/ml); CD4+ T cells of PBMC-1; 293-CIITA pulsed with peptide [14]: 129 pg/mL | IFN-g (pg/ml); CD4+ T cells of PBMC-2; 293-CIITA pulsed with peptide [14]: 108 pg/mL | IFN-g (pg/ml); CD4+ T cells of PBMC-1; 293-CIITA pulsed with peptide [15]: 0 pg/mL | IFN-g (pg/ml); CD4+ T cells of PBMC-2; 293-CIITA pulsed with peptide [15]: 7 pg/mL | IFN-g (pg/ml); CD4+ T cells of PBMC-1; 293-CIITA pulsed with peptide [16]: 22 pg/mL | IFN-g (pg/ml); CD4+ T cells of PBMC-2; 293-CIITA pulsed with peptide [16]: 28 pg/mL | IFN-g (pg/ml); CD4+ T cells of PBMC-1; 293-CIITA pulsed with peptide [17]: 0 pg/mL | IFN-g (pg/ml); CD4+ T cells of PBMC-2; 293-CIITA pulsed with peptide [17]: 11 pg/mL | IFN-g (pg/ml); CD4+ T cells of PBMC-1; 293-CIITA pulsed with peptide [18]: 9 pg/mL | IFN-g (pg/ml); CD4+ T cells of PBMC-2; 293-CIITA pulsed with peptide [18]: 25 pg/mL | IFN-g (pg/ml); CD4+ T cells of PBMC-1; 293-CIITA pulsed with peptide [19]: 193 pg/mL | IFN-g (pg/ml); CD4+ T cells of PBMC-2; 293-CIITA pulsed with peptide [19]: 194 pg/mL | IFN-g (pg/ml); CD4+ T cells of PBMC-1; 293-CIITA pulsed with peptide [20]: 82 pg/mL | IFN-g (pg/ml); CD4+ T cells of PBMC-2; 293-CIITA pulsed with peptide [20]: 226 pg/mL | IFN-g (pg/ml); CD4+ T cells of PBMC-1; 293-CIITA pulsed with peptide [21]: 45 pg/mL | IFN-g (pg/ml); CD4+ T cells of PBMC-2; 293-CIITA pulsed with peptide [21]: 78 pg/mL | IFN-g (pg/ml); CD4+ T cells of PBMC-1; 293-CIITA pulsed with peptide [22]: 0 pg/mL | IFN-g (pg/ml); CD4+ T cells of PBMC-2; 293-CIITA pulsed with peptide [22]: 25 pg/mL | IFN-g (pg/ml); CD4+ T cells of PBMC-1; 293-CIITA pulsed with peptide [23]: 0 pg/mL | IFN-g (pg/ml); CD4+ T cells of PBMC-2; 293-CIITA pulsed with peptide [23]: 21 pg/mL | IFN-g (pg/ml); CD4+ T cells of PBMC-1; 293-CIITA pulsed with peptide [24]: 10200 pg/mL | IFN-g (pg/ml); CD4+ T cells of PBMC-2; 293-CIITA pulsed with peptide [24]: 10400 pg/mL
B1: 6F9 TCR (TCR)
TCR alpha: QTVTQSQPEMSVQEAETVTLSCTYDTSESDYYLFWYKQPPSRQMILVIRQEAYKQQNATENRFSVNFQKAAKSFSLKISDSQLGDAAMYFCALRSSGTYKYIFGTGTRLKVLANIQNPDPAVYQLRDSKSSDKSVCLFTDFDSQTNVSQSKDSDVYITDKTVLDMRSMDFKSNSAVAWSNKSDFACANAFNNSIIPEDTFFPSPESSCDVKLVEKSFETDTNLNFQNLSVIGFRILLLKVAGFNLLMTLRLWSS
TCR beta: GAGVSQSPSNKVTEKGKDVELRCDPISGHTALYWYRQSLGQGLEFLIYFQGNSAPDKSGLPSDRFSAERTGGSVSTLTIQRTQQEDSAVYLCASIRTGPFFSGNTIYFGEGSWLTVVEDLNKVFPPEVAVFEPSEAEISHTQKATLVCLATGFFPDHVELSWWVNGKEVHSGVSTDPQPLKEQPALNDSRYCLSSRLRVSATFWQNPRNHFRCQVQFYGLSENDEWTQDRAKPVTQIVSAEAWGRADCGFTSVSYQQGVLSATILYEILLGKATLYAVLVSALVLMAMVKRKDF
